Consider five molecules from PMC11112747, “Cyanovirin-N Binding to N-Acetyl-D-glucosamine Requires Carbohydrate-Binding Sites on Two Different Protomers” (Biochemistry, 2024).

Where “and” joins values, the source holds several entries; their conditions need not be identical. Equal values may be shown once. Read-outs that look alike come from different tables or passages of the source.

For test [1], the target named is T1, mutant E41T dimer (Nostoc ellipsosporum, UniProt P81180, E41T).
T1 construct: His-tag
In words: Isothermal titration calorimetry, protein titrated into GlcNAc in the cell, PBS pH 7.4, 298 K, one-set of sites model. The test is classed as binding. The note with it: SEM, n = 3; read-out: affinity Kd. As for the experimental part:
(§1) Calorimetric titrations were carried out using an ITC200 device (Malvern Panalytical, Malvern, UK). The concentration of mutant E41T dimer and monomeric variants CVN-E41T or CVN-E41A was 200 μM titrant of these proteins to the ligands ManNAc and GlcNAc in the cell. […] The protein concentrations were 44 μM (304 μM) CVN2L0 and 465 μM CVN-E41T in the ManNAc experiments, respectively, and determined to be between 200 and 300 μM for the GlcNAc experiment. Aliquots (2 μL) of CV-N titrant were injected at 2 min intervals into the sugar solution in the calorimetry cell with a total of 19 injections from a stirring syringe (operated at 750 rpm). Controls were prepared with identical amounts of titrant injected into PBS buffer at pH 7.4 at 298 K, and control values were subtracted from the results of the actual experiments. The values for enthalpy, binding affinity, and stoichiometry from the binding curve and the free energy and entropy of interaction were calculated using Microcal Origin v7.0 (OriginLab, Northampton, Massachusetts, USA) according to the standard expressions: ΔG = −RTln Ka, and ΔG = ΔH–TΔS.
(§2) Figure 2 ITC data showing the binding of CVN2, mutant E41T dimer, and CVN-E41A to GlcNAc. (A) Schematic representation of monomeric CVN-E41A and dimeric CVN2 binding to GlcNAc. (B) Binding affinity of CVN2 to GlcNAc. Thermogram is shown, and the binding curve fitted to the one-set of sites model. (C) Mutant E41T dimer binds to GlcNAc. Thermogram is shown, and binding analyzed based on one-set of sites binding model. T = 298 K. Ligand in cell. […] Thermogram is shown, and binding analyzed based on one-set of sites binding model. […]
(§3) The lectin interaction with peptide residues was enhanced or reduced by replacing a single, or two, disulfide bond(s) by ionic residue pairs (Glu and Arg) at positions E58 and R73 in CVN2, resulting in binding of dimannosylated peptide (DM) by double-mutant C58E-C73R (CVN2L0-V5) (Figure S2C) with high polar interactions.[12] […] The binding stoichiometry was calculated from a simplex fit. […]

Test [2] has as its target T2, CVN2 (CVN2L0) (Nostoc ellipsosporum, UniProt P81180).
T2 construct: tandem-linked domain-swapped dimer of two CV-N, zero-linker length; His-tag
T2 sequence (P81180 1-101): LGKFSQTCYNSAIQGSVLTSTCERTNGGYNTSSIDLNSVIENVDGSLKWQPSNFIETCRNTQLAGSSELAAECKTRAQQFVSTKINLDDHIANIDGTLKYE
Described as above. The test is classed as binding. Conditions: SEM, n = 3; read-out: affinity Kd. As for the experimental part: as §1, §2, §3

The target of a further test is T3, CVN-E41A (Nostoc ellipsosporum, UniProt P81180, E41A).
T3 construct: monomeric variant; His-tag
The description is as above. Conditions: SEM, n = 3; read-out: affinity Kd. The test is classed as binding. The method, then:
as §1, §2, §3

The target of the next test is T4, CVN-E41T (Nostoc ellipsosporum, UniProt P81180, E41T).
T4 construct: His-tag
In words: Isothermal titration calorimetry, monomeric CVN-E41T titrated into 6 uM GlcNAc in the cell, PBS pH 7.4, 298 K, one-set of sites model, single biological replicates. The test is classed as binding. Conditions: n = 1; read-out: Affinity Kd. As for the experimental part: as §1, with “Controls were prepared with identical amounts of titrant injected into PBS buffer at pH 7.4 at 298 K, and control values were subtracted from the results of the actual experiments.” left out
as §3
A general note: ITC needs no label: the signal is the heat of the interaction.

For test [3], the target named is T1, mutant E41T dimer. In words: Isothermal titration calorimetry, mutant E41T dimer with ManNAc in the cell, PBS pH 7.4, 298 K, calculated with N = 2. The test is classed as binding. The method, then: as §1, with “Controls were prepared with identical amounts of titrant injected into PBS buffer at pH 7.4 at 298 K, and control values were subtracted from the results of the actual experiments.” left out
In comparison, CV-N binding to GlcNAc, the N-linked glycan unit in N-glycosylation sites that is also part of bacterial cell walls with beta-linked bonds to N-acetylmuramic acid (MurNAc), was rather unspecific and measured in the micromolar range (Figure S1B).
Figure S1. […] Calculated energies of interaction, affinities, and stoichiometry for CV-N binding and […]
model. (F) Mutant E41T dimer binding to ManNAc is calculated based on N=2, ligand in the cell analysis. […]

Test [4] concerns the target T2, CVN2 (CVN2L0). In words: Isothermal titration calorimetry, CVN2 titrated into ManNAc in the cell, PBS pH 7.4, 298 K, one-set of sites model. Conditions: SEM, n = 3; read-out: affinity Kd. The test is classed as binding. The method, then: as §1, with “Controls were prepared with identical amounts of titrant injected into PBS buffer at pH 7.4 at 298 K, and control values were subtracted from the results of the actual experiments.” left out, “ΔH–TΔS. […]” for “ΔH–TΔS.”
Specific carbohydrate–protein interactions with polar and charged residues were delineated from the solution structure with Manα1 → 2Man disaccharide bound to domain B.[5] […] A low-affinity binding site was exposed and calculated to bind ManNAc with micromolar concentrations of CV-N and CVN2 (Figure S1A and Figure 1B). […]

For test [5] the following is noted: cited from earlier work.
Test [6] can be described thus: STD-NMR interaction with ManNAc. The test is classed as binding. Conditions: protein 100 μM, carbohydrate/CV-N = 10:1, T = 298 K. As for the experimental part:
(§4) NMR experiments were performed using a Bruker 600 MHz spectrometer, and STD spectra were obtained with −0.05 ppm as irradiation frequency and 2.94 s of saturation time. An NMR sample of CV-N, its mutant, and dimer were prepared in 100 mM PBS, pH 7.0, each added to the carbohydrate solutions in phosphate buffer for a final protein concentration of 100 μM and a ratio of carbohydrate/CV-N = 10:1.

Test [7] can be described thus: STD-NMR interaction with GlcNAc. Conditions: protein 100 μM, carbohydrate/CV-N = 10:1, T = 298 K. The test is classed as binding. The method, then: as §4
The nature of test [8]: ITC binding of CV-N, CVN2 and variants to ManNAc. Conditions: for Kd: two-sets of sites model. The method, then:
as §1

Test [9] in a line: ITC binding of CVN2 to dimannosylated peptide (DM). Conditions: one-set of sites model, T=298K, Figure S2D.

In the case of `CC(=O)N[C@H]1C(O)O[C@H](CO)[C@@H](O)[C@@H]1O` (stereo partly drawn) [GlcNAc, N-acetyl-D-glucosamine], the Kd on mutant E41T dimer [1] is 5890 ± 320 nM; at CVN2 (CVN2L0) [2], 852 ± 235 nM; at CVN-E41A, 2500 ± 2000 nM; at CVN-E41T it was 728 nM and 397 nM and 418 nM.
Turning to `CC(=O)N[C@@H]1C(O)O[C@H](CO)[C@@H](O)[C@@H]1O` (stereo partly drawn) [ManNAc, N-acetylmannosamine], the Kd at mutant E41T dimer [3] was 110000 nM; at CVN2 (CVN2L0) [4] it was 1400 ± 139 nM.

B1: Cyanovirin-N (protein, UniProt P81180 1-101, looked up)
Cyanovirin-N: LGKFSQTCYNSAIQGSVLTSTCERTNGGYNTSSIDLNSVIENVDGSLKWQPSNFIETCRNTQLAGSSELAAECKTRAQQFVSTKINLDDHIANIDGTLKYE
With B1, the Kd was approximately 140 nM in test [5] (deeper high-affinity binding pocket, read-out: equilibrium Kd) and 1500 nM in test [5] (domain A (low-affinity site), read-out: Kd). The “STD-NMR interaction with ManNAc” value in [6] is “hydrogen bonding”. Also, the “STD-NMR interaction with GlcNAc” value in test [7] is “interaction”.

B2: CVN-E41T: CV-N binding-site variant with single-point mutation E41T, generated by alanine to threonine substitution (protein, UniProt P81180 1-101, looked up, variant E41T)
Cyanovirin-N: LGKFSQTCYNSAIQGSVLTSTCERTNGGYNTSSIDLNSVITNVDGSLKWQPSNFIETCRNTQLAGSSELAAECKTRAQQFVSTKINLDDHIANIDGTLKYE
Turning to B2, in test [6], the “STD-NMR interaction with ManNAc” value was “hydrogen bonding”. The “binding to ManNAc (ITC)” value in [8] (one-set of sites model, Figure S3A) is “no binding”. Moreover, the Kd in test [8] (site 1, read-out: KD1) was found to be 712000 nM; in [8] (site 2, read-out: KD2), 17600 nM. The “STD-NMR interaction with GlcNAc” value in [7] was “interaction”.

B3: CVN2: tandem-linked dimeric CVN2 with zero-linker length; tandem repeat of two CV-N molecules (protein, UniProt P81180 1-101, looked up)
Cyanovirin-N: LGKFSQTCYNSAIQGSVLTSTCERTNGGYNTSSIDLNSVIENVDGSLKWQPSNFIETCRNTQLAGSSELAAECKTRAQQFVSTKINLDDHIANIDGTLKYE
modifications: tandem repeat dimer, zero linker
notes: tandem-linked dimeric CVN2 with zero-linker length; tandem repeat of two CV-N molecules
As for B3, the Kd amounted to 2.6 nM in test [8] (site 2, read-out: KD2) and 3940 nM in test [9]. For the same molecule, in test [7], the “STD-NMR interaction with GlcNAc” value is listed as “interaction”.
